Source: US20210388087A1 (Chugai, published 2021)

B1: GLS3000 N53L (antibody, name in Kabat numbering, V domains shown)
VH: QVQLVESGGGVVQPGRSLRLSCAASGFTFSNAWMHWVRQAPGKGLEWVAQIKAKSNNYATYYAESVKGRFTISRDDSKNSLYLQMNSLKTEDTAVYYCRYVHYGAYYGVDAWGQGTTVTVSS
VL: DIVMTQSPLSLPVTPGEPASISCRSSQSLVHSNRNTYLHWYQQKPGQAPRLLIYKVSLRFSGVPDRFSGSGSGTDFTLKISRVEAEDVGVYYCGQGTQVPYTFGQGTKLEIK
notes: one-arm IgG as m2
B2: GLS3000 N53V (antibody, name in Kabat numbering, V domains shown)
VH: QVQLVESGGGVVQPGRSLRLSCAASGFTFSNAWMHWVRQAPGKGLEWVAQIKAKSNNYATYYAESVKGRFTISRDDSKNSLYLQMNSLKTEDTAVYYCRYVHYGAYYGVDAWGQGTTVTVSS
VL: DIVMTQSPLSLPVTPGEPASISCRSSQSLVHSNRNTYLHWYQQKPGQAPRLLIYKVSVRFSGVPDRFSGSGSGTDFTLKISRVEAEDVGVYYCGQGTQVPYTFGQGTKLEIK
notes: one-arm IgG as m2
B3: GLS3000 Q27P (antibody, name in Kabat numbering, V domains shown)
VH: QVQLVESGGGVVQPGRSLRLSCAASGFTFSNAWMHWVRQAPGKGLEWVAQIKAKSNNYATYYAESVKGRFTISRDDSKNSLYLQMNSLKTEDTAVYYCRYVHYGAYYGVDAWGQGTTVTVSS
VL: DIVMTQSPLSLPVTPGEPASISCRSSPSLVHSNRNTYLHWYQQKPGQAPRLLIYKVSNRFSGVPDRFSGSGSGTDFTLKISRVEAEDVGVYYCGQGTQVPYTFGQGTKLEIK
notes: one-arm IgG as m2
B4: GLS3000 N53M (antibody, name in Kabat numbering, V domains shown)
VH: QVQLVESGGGVVQPGRSLRLSCAASGFTFSNAWMHWVRQAPGKGLEWVAQIKAKSNNYATYYAESVKGRFTISRDDSKNSLYLQMNSLKTEDTAVYYCRYVHYGAYYGVDAWGQGTTVTVSS
VL: DIVMTQSPLSLPVTPGEPASISCRSSQSLVHSNRNTYLHWYQQKPGQAPRLLIYKVSMRFSGVPDRFSGSGSGTDFTLKISRVEAEDVGVYYCGQGTQVPYTFGQGTKLEIK
notes: one-arm IgG as m2
B5: GLS3000 N53W (antibody, name in Kabat numbering, V domains shown)
VH: QVQLVESGGGVVQPGRSLRLSCAASGFTFSNAWMHWVRQAPGKGLEWVAQIKAKSNNYATYYAESVKGRFTISRDDSKNSLYLQMNSLKTEDTAVYYCRYVHYGAYYGVDAWGQGTTVTVSS
VL: DIVMTQSPLSLPVTPGEPASISCRSSQSLVHSNRNTYLHWYQQKPGQAPRLLIYKVSWRFSGVPDRFSGSGSGTDFTLKISRVEAEDVGVYYCGQGTQVPYTFGQGTKLEIK
notes: one-arm IgG as m2
B6: GLS3000 Q27R (antibody, name in Kabat numbering, V domains shown)
VH: QVQLVESGGGVVQPGRSLRLSCAASGFTFSNAWMHWVRQAPGKGLEWVAQIKAKSNNYATYYAESVKGRFTISRDDSKNSLYLQMNSLKTEDTAVYYCRYVHYGAYYGVDAWGQGTTVTVSS
VL: DIVMTQSPLSLPVTPGEPASISCRSSRSLVHSNRNTYLHWYQQKPGQAPRLLIYKVSNRFSGVPDRFSGSGSGTDFTLKISRVEAEDVGVYYCGQGTQVPYTFGQGTKLEIK
notes: one-arm IgG as m2
B7: GLS3000 P95D (antibody, name in Kabat numbering, V domains shown)
VH: QVQLVESGGGVVQPGRSLRLSCAASGFTFSNAWMHWVRQAPGKGLEWVAQIKAKSNNYATYYAESVKGRFTISRDDSKNSLYLQMNSLKTEDTAVYYCRYVHYGAYYGVDAWGQGTTVTVSS
VL: DIVMTQSPLSLPVTPGEPASISCRSSQSLVHSNRNTYLHWYQQKPGQAPRLLIYKVSNRFSGVPDRFSGSGSGTDFTLKISRVEAEDVGVYYCGQGTQVDYTFGQGTKLEIK
notes: one-arm IgG as m2
B8: GLS3000 P95S (antibody, name in Kabat numbering, V domains shown)
VH: QVQLVESGGGVVQPGRSLRLSCAASGFTFSNAWMHWVRQAPGKGLEWVAQIKAKSNNYATYYAESVKGRFTISRDDSKNSLYLQMNSLKTEDTAVYYCRYVHYGAYYGVDAWGQGTTVTVSS
VL: DIVMTQSPLSLPVTPGEPASISCRSSQSLVHSNRNTYLHWYQQKPGQAPRLLIYKVSNRFSGVPDRFSGSGSGTDFTLKISRVEAEDVGVYYCGQGTQVSYTFGQGTKLEIK
notes: one-arm IgG as m2
B9: GLS3000 N53R (antibody, name in Kabat numbering, V domains shown)
VH: QVQLVESGGGVVQPGRSLRLSCAASGFTFSNAWMHWVRQAPGKGLEWVAQIKAKSNNYATYYAESVKGRFTISRDDSKNSLYLQMNSLKTEDTAVYYCRYVHYGAYYGVDAWGQGTTVTVSS
VL: DIVMTQSPLSLPVTPGEPASISCRSSQSLVHSNRNTYLHWYQQKPGQAPRLLIYKVSRRFSGVPDRFSGSGSGTDFTLKISRVEAEDVGVYYCGQGTQVPYTFGQGTKLEIK
notes: one-arm IgG as m2
B10: GLS3000 Q27E (antibody, name in Kabat numbering, V domains shown)
VH: QVQLVESGGGVVQPGRSLRLSCAASGFTFSNAWMHWVRQAPGKGLEWVAQIKAKSNNYATYYAESVKGRFTISRDDSKNSLYLQMNSLKTEDTAVYYCRYVHYGAYYGVDAWGQGTTVTVSS
VL: DIVMTQSPLSLPVTPGEPASISCRSSESLVHSNRNTYLHWYQQKPGQAPRLLIYKVSNRFSGVPDRFSGSGSGTDFTLKISRVEAEDVGVYYCGQGTQVPYTFGQGTKLEIK
notes: one-arm IgG as m2
B11: GLS3000 N53Y (antibody, name in Kabat numbering, V domains shown)
VH: QVQLVESGGGVVQPGRSLRLSCAASGFTFSNAWMHWVRQAPGKGLEWVAQIKAKSNNYATYYAESVKGRFTISRDDSKNSLYLQMNSLKTEDTAVYYCRYVHYGAYYGVDAWGQGTTVTVSS
VL: DIVMTQSPLSLPVTPGEPASISCRSSQSLVHSNRNTYLHWYQQKPGQAPRLLIYKVSYRFSGVPDRFSGSGSGTDFTLKISRVEAEDVGVYYCGQGTQVPYTFGQGTKLEIK
notes: one-arm IgG as m2
B12: GLS3000 Q27D (antibody, name in Kabat numbering, V domains shown)
VH: QVQLVESGGGVVQPGRSLRLSCAASGFTFSNAWMHWVRQAPGKGLEWVAQIKAKSNNYATYYAESVKGRFTISRDDSKNSLYLQMNSLKTEDTAVYYCRYVHYGAYYGVDAWGQGTTVTVSS
VL: DIVMTQSPLSLPVTPGEPASISCRSSDSLVHSNRNTYLHWYQQKPGQAPRLLIYKVSNRFSGVPDRFSGSGSGTDFTLKISRVEAEDVGVYYCGQGTQVPYTFGQGTKLEIK
notes: one-arm IgG as m2
B13: GLS3000 P95L (antibody, name in Kabat numbering, V domains shown)
VH: QVQLVESGGGVVQPGRSLRLSCAASGFTFSNAWMHWVRQAPGKGLEWVAQIKAKSNNYATYYAESVKGRFTISRDDSKNSLYLQMNSLKTEDTAVYYCRYVHYGAYYGVDAWGQGTTVTVSS
VL: DIVMTQSPLSLPVTPGEPASISCRSSQSLVHSNRNTYLHWYQQKPGQAPRLLIYKVSNRFSGVPDRFSGSGSGTDFTLKISRVEAEDVGVYYCGQGTQVLYTFGQGTKLEIK
notes: one-arm IgG as m2
B14: GLS3000 Q27L (antibody, name in Kabat numbering, V domains shown)
VH: QVQLVESGGGVVQPGRSLRLSCAASGFTFSNAWMHWVRQAPGKGLEWVAQIKAKSNNYATYYAESVKGRFTISRDDSKNSLYLQMNSLKTEDTAVYYCRYVHYGAYYGVDAWGQGTTVTVSS
VL: DIVMTQSPLSLPVTPGEPASISCRSSLSLVHSNRNTYLHWYQQKPGQAPRLLIYKVSNRFSGVPDRFSGSGSGTDFTLKISRVEAEDVGVYYCGQGTQVPYTFGQGTKLEIK
notes: one-arm IgG as m2
B15: GLS3000 N53Q (antibody, name in Kabat numbering, V domains shown)
VH: QVQLVESGGGVVQPGRSLRLSCAASGFTFSNAWMHWVRQAPGKGLEWVAQIKAKSNNYATYYAESVKGRFTISRDDSKNSLYLQMNSLKTEDTAVYYCRYVHYGAYYGVDAWGQGTTVTVSS
VL: DIVMTQSPLSLPVTPGEPASISCRSSQSLVHSNRNTYLHWYQQKPGQAPRLLIYKVSQRFSGVPDRFSGSGSGTDFTLKISRVEAEDVGVYYCGQGTQVPYTFGQGTKLEIK
notes: one-arm IgG as m2
B16: GLS3000 N53S (antibody, name in Kabat numbering, V domains shown)
VH: QVQLVESGGGVVQPGRSLRLSCAASGFTFSNAWMHWVRQAPGKGLEWVAQIKAKSNNYATYYAESVKGRFTISRDDSKNSLYLQMNSLKTEDTAVYYCRYVHYGAYYGVDAWGQGTTVTVSS
VL: DIVMTQSPLSLPVTPGEPASISCRSSQSLVHSNRNTYLHWYQQKPGQAPRLLIYKVSSRFSGVPDRFSGSGSGTDFTLKISRVEAEDVGVYYCGQGTQVPYTFGQGTKLEIK
notes: one-arm IgG as m2
B17: GLS3000 N53T (antibody, name in Kabat numbering, V domains shown)
VH: QVQLVESGGGVVQPGRSLRLSCAASGFTFSNAWMHWVRQAPGKGLEWVAQIKAKSNNYATYYAESVKGRFTISRDDSKNSLYLQMNSLKTEDTAVYYCRYVHYGAYYGVDAWGQGTTVTVSS
VL: DIVMTQSPLSLPVTPGEPASISCRSSQSLVHSNRNTYLHWYQQKPGQAPRLLIYKVSTRFSGVPDRFSGSGSGTDFTLKISRVEAEDVGVYYCGQGTQVPYTFGQGTKLEIK
notes: one-arm IgG as m2
B18: GLS3000 P95A (antibody, name in Kabat numbering, V domains shown)
VH: QVQLVESGGGVVQPGRSLRLSCAASGFTFSNAWMHWVRQAPGKGLEWVAQIKAKSNNYATYYAESVKGRFTISRDDSKNSLYLQMNSLKTEDTAVYYCRYVHYGAYYGVDAWGQGTTVTVSS
VL: DIVMTQSPLSLPVTPGEPASISCRSSQSLVHSNRNTYLHWYQQKPGQAPRLLIYKVSNRFSGVPDRFSGSGSGTDFTLKISRVEAEDVGVYYCGQGTQVAYTFGQGTKLEIK
notes: one-arm IgG as m2
B19: GLS3000 P95E (antibody, name in Kabat numbering, V domains shown)
VH: QVQLVESGGGVVQPGRSLRLSCAASGFTFSNAWMHWVRQAPGKGLEWVAQIKAKSNNYATYYAESVKGRFTISRDDSKNSLYLQMNSLKTEDTAVYYCRYVHYGAYYGVDAWGQGTTVTVSS
VL: DIVMTQSPLSLPVTPGEPASISCRSSQSLVHSNRNTYLHWYQQKPGQAPRLLIYKVSNRFSGVPDRFSGSGSGTDFTLKISRVEAEDVGVYYCGQGTQVEYTFGQGTKLEIK
notes: one-arm IgG as m2
B20: GLS3000 P95G (antibody, name in Kabat numbering, V domains shown)
VH: QVQLVESGGGVVQPGRSLRLSCAASGFTFSNAWMHWVRQAPGKGLEWVAQIKAKSNNYATYYAESVKGRFTISRDDSKNSLYLQMNSLKTEDTAVYYCRYVHYGAYYGVDAWGQGTTVTVSS
VL: DIVMTQSPLSLPVTPGEPASISCRSSQSLVHSNRNTYLHWYQQKPGQAPRLLIYKVSNRFSGVPDRFSGSGSGTDFTLKISRVEAEDVGVYYCGQGTQVGYTFGQGTKLEIK
notes: one-arm IgG as m2
B21: GLS3000 N53P (antibody, name in Kabat numbering, V domains shown)
VH: QVQLVESGGGVVQPGRSLRLSCAASGFTFSNAWMHWVRQAPGKGLEWVAQIKAKSNNYATYYAESVKGRFTISRDDSKNSLYLQMNSLKTEDTAVYYCRYVHYGAYYGVDAWGQGTTVTVSS
VL: DIVMTQSPLSLPVTPGEPASISCRSSQSLVHSNRNTYLHWYQQKPGQAPRLLIYKVSPRFSGVPDRFSGSGSGTDFTLKISRVEAEDVGVYYCGQGTQVPYTFGQGTKLEIK
notes: one-arm IgG as m2

What follows are binders tested against T1, CD3 epsilon homodimer protein (UniProt P07766 23-126) (assay: SPR Biacore T200, CD3e homodimer on chip, vs unaltered GLS3000 antibody).
T1 construct: also called CD3 (CD3 epsilon)
T1 sequence (P07766 23-126): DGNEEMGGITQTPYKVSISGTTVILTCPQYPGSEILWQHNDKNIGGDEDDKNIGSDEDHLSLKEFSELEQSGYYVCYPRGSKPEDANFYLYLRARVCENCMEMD

| Binder | ratio of amounts bound (Z=Y/X) |
| --- | --- |
| B1 | 0.56 |
| B2 | 0.56 |
| B3 | 0.29 |
| B4 | 0.62 |
| B5 | 0.81 |
| B6 | 1.19 |
| B7 | 0.24 |
| B8 | 0.43 |
| B9 | 1.58 |
| B10 | 0.88 |
| B11 | 0.67 |
| B12 | 0.85 |
| B13 | 0.24 |
| B14 | 0.92 |
| B15 | 0.77 |
| B16 | 0.69 |
| B17 | 0.56 |
| B18 | 0.63 |
| B19 | 0.39 |
| B20 | 0.37 |
| B21 | 0.81 |
